Assay results: patent US20170112908A1

B1: … (peptide)
peptide: VIPWNLERLT
B2: … (peptide)
peptide: SQPWNLERIQ
B3: … (peptide)
peptide: AIPWNLERIT
B4: … (peptide)
peptide: SIPWNLDRITPPR
B5: … (peptide)
peptide: SIPWNLERITPTR
B6: … (peptide)
peptide: VQPWSLERLL
B7: … (peptide)
peptide: VQPWSLERTL
B8: … (peptide)
peptide: SQPWNLERIL
B9: … (peptide)
peptide: VIPWNLERTT
B10: … (peptide)
peptide: SVPWNLERTT
B11: … (peptide)
peptide: SQPWNLERLT
B12: … (peptide)
peptide: VIPWNLERIT
B13: … (peptide)
peptide: SIPDNLERIT
B14: … (peptide)
peptide: SIPWNAERIT
B15: … (peptide)
peptide: VIPWNLERIL
B16: … (peptide)
peptide: SQPWNLERIT
B17: … (peptide)
peptide: SIPWNLERIA
B18: … (peptide)
peptide: VIPWNLERIQ
B19: … (peptide)
peptide: SIPWNLERITPPA
B20: … (peptide)
peptide: SIPWNLERISPPR
B21: … (peptide)
peptide: SIPWNLERITPAR
B22: … (negative control) (peptide)
peptide: ERTKSDPGAQHREF
B23: … (peptide)
peptide: SIPWNLERTT
B24: … (peptide)
peptide: SQPWSLERTL
B25: … (negative control) (peptide)
peptide: ITELSRWPNI
B26: … (peptide)
peptide: SIPWDLERITPPR
B27: … (peptide)
peptide: SIPWNLERITPPL
B28: … (peptide)
peptide: SITWNLERIT
B29: … (peptide)
peptide: SIPWNLERITPPS
B30: … (peptide)
peptide: SIPWNFERITPPR
B31: … (peptide)
peptide: SIPWNGERIT
B32: … (peptide)
peptide: SGPWNLERITPPR
B33: … (peptide)
peptide: SIPWNDERIT
B34: … (peptide)
peptide: SIPWNLERITPVR
B35: … (peptide)
peptide: SIPWQLERITPPR
B36: … (peptide)
peptide: SVPWNLERIL
B37: … (peptide)
peptide: SIPWNLERITPNR
B38: … (peptide)
peptide: SVPWNLERIQ
B39: … (peptide)
peptide: SVPWSLERLT
B40: … (peptide)
peptide: SIVWNLERITPPR
B41: … (peptide)
peptide: SIPWNLERITAPR
B42: … (peptide)
peptide: TIPWNLERIT
B43: … (peptide)
peptide: SIPWSLERIQ
B44: … (peptide)
peptide: SIPHNLERIT
B45: … (peptide)
peptide: SIPWNLERAT
B46: … (peptide)
peptide: SIPWNVERITPPR
B47: … (peptide)
peptide: SVPWNLERIT
B48: … (peptide)
peptide: SIPWNLEDIT
B49: … (peptide)
peptide: SVPWNLEKLT
B50: … (peptide)
peptide: SIPWNLERITPPK
B51: … (peptide)
peptide: SIPWNLARIT
B52: … (peptide)
peptide: SIPWNLERIL
B53: … (peptide)
peptide: SIPGNLERIT
B54: … (peptide)
peptide: SIPSNLERIT
B55: … (peptide)
peptide: SVPWNLERLT
B56: … (peptide)
peptide: SIPWSLERIT
B57: … (peptide)
peptide: SIPANLERIT
B58: … (peptide)
peptide: SIPWALERIT
B59: … (peptide)
peptide: SIAWNLERIT

Each binder was assayed against polyclonal antibodies in mouse sera specific for human PCSK9 aa 153-162 or aa 153-165 (assay: competition ELISA, 20 ug peptide with sera, plate coated with m2 (competitor)).

Binder	% Competition compared to the related control group [%]
B1	54
B2	66
B3	88
B4	53
B5	73
B6	66
B7	48
B8	69
B9	69
B10	73
B11	69
B12	51
B13	3
B14	73
B15	49
B16	30
B17	80
B18	47
B19	65
B20	79

Binder	% Competition compared to the related control group [%]
B21	74
B22	0
B23	73
B24	53
B25	0
B26	74
B27	66
B28	62
B29	66
B30	79
B31	52
B32	54
B33	71
B34	75
B35	79
B36	59
B37	70
B38	61
B39	74
B40	78

Binder	% Competition compared to the related control group [%]
B41	70
B42	52
B43	44
B44	0
B45	77
B46	78
B47	62
B48	13
B49	11
B50	66
B51	13
B52	56
B53	0
B54	7
B55	57
B56	73
B57	8
B58	75
B59	78
